Ten molecules from patent US20170204184A1 (CB THERAPEUTICS, published 2017) can be followed below.

To fix the notation:
B1: m15F1 (antibody, V domains shown)
VH: EEKLVESGGGLVKPGGSLKLSCAASGFSFSSYGMSWVRQTPEKRLEWVASISSGGSIYYPDSVKGRFTISRDNARNILYLQMSSLRSEDTAMYYCARGYDAGFAFWGQGTLVTASA
VL: DIVLTQSPASLAVSLGQRATISCRASQSVSTSSYSYVHWYQQKPGQPPKLLIKYASNLESGVPARFSGSGSGTDFTLNIHPVEEEDTATYYCQHSWEIPYTFGGGTKLEIK
notes: Murine hybridoma IgG (printed 'mIgG'); also called 15F1-mIgG; 15F1 murine
B2: hu13C5-hIgG1 (antibody)
heavy: not shown
light: DIVLTQSPASLAVSPGQRATITCRASQSVSTSSSSFMHWYQQKPGQPPKLLIKYASNLESGVPARFSGSGSGTDFTLTINPVEANDTANYYCQHSWEIPYTFGQGTKLEIKRTVAAPSVFIFPPSDEQLKSGTASVVCLLNNFYPREAKVQWKVDNALQSGNSQESVTEQDSKDSTYSLSSTLTLSKADYEKHKVYACEVTHQGLSSPVTKSFNRGEC
notes: Humanized IgG1 with D265A; also called Humanized 13C5-IgG1 (D265A); hu-13C5-IgG1
B3: hu13C5-hIgG4 (antibody)
heavy: not shown
light: B2 light
notes: Humanized IgG4 with F234A and L235A; also called Humanized 13C5-IgG4 (F234A/L235A); hu-13C5-IgG4
B4: ch8H4-hIgG4 (antibody, V domains shown)
VH: EVKLVESGGGLVKPGGSLKLSCAASGFTFRSYGMSWARQIPEKRLEWVASISSGGTTYYLGSVQGRFTISRDNARNILYLQMSSLRSEDTAMYYCARGYDAGFAYWGQGTLVSVSS
VL: DIVLTQSPASLAVSLGQRATISCRASQSVSTSSYSYMHWYQQKPGQPPKLLIKYASNLESGVPARFSGSGSGTDFTLNIHPVEEEDTATYYCQNSWEIPYTFGGGTKLEIKR
notes: Mouse-human chimeric IgG4 (F234A/L235A), human kappa; also called Chimeric 8H4-IgG4 (F234A/L235A); chimeric 8H4-hIgG4
B5: ch5G11-hIgG1 (antibody)
heavy: not shown
light: SIVMTQTPKFLLVSAGDRVTITCKASQSVSNDVAWYQQKPGQSPKLLIYYAANRYTGVPDRFTGSGYGTDFTFTISIVQAEDLAVYFCQQDYTSPYTFGGGTKLEIKRTVAAPSVFIFPPSDEQLKSGTASVVCLLNNFYPREAKVQWKVDNALQSGNSQESVTEQDSKDSTYSLSSTLTLSKADYEKHKVYACEVTHQGLSSPVTKSFNRGEC
notes: Mouse-human chimeric IgG1 (D265A), human kappa; also called Chimeric 5G11-IgG1 (D265A); ch-5G11-IgG1
B6: ch5G11-hIgG4 (antibody)
heavy: not shown
light: B5 light
notes: Mouse-human chimeric IgG4 (F234A/L235A), human kappa; also called Chimeric 5G11-IgG4 (F234A/L235A); ch-5G11-IgG4
B7: ch8C6-hIgG4 (antibody, V domains shown)
VH: QVQLKQSGPGLVQPSQSLSITCTVSGFSLTSYGVHWVRQSPGKGLEWLGVIWSGGVTDYNAAFISRLSISKDNSKSQVFFKMNSLQANDTAIYYCARLGFYAMDYWGQGTSVTVSS
VL: SIVMTQTPKFLLVSAGDRVTITCKASQSVSNDVGWYQQKPGQSPKLLIYYASNRYSGVPDRFTGSGYGTDFTFTISTVQAEDLAVYFCQQDYTSPYTFGGGTKLEIKR
notes: Mouse-human chimeric IgG4 (F234A/L235A), human kappa; also called Chimeric 8C6-IgG4 (F234A/L235A); chimeric 8C6-hIgG4
B8: hu5G11-hIgG1 (antibody)
heavy: not shown
light: DIQMTQSPSSLSASVGDRVTITCKASQSVSNDVAWYQQKPGKAPKLLIYYAANRYTGVPDRFSGSGYGTDFTFTISSLQPEDIATYFCQQDYTSPYTFGQGTKLEIKRTVAAPSVFIFPPSDEQLKSGTASVVCLLNNFYPREAKVQWKVDNALQSGNSQESVTEQDSKDSTYSLSSTLTLSKADYEKHKVYACEVTHQGLSSPVTKSFNRGEC
notes: Humanized IgG1 with D265A; also called Humanized 5G11-IgG1 (D265A); hu-5G11-IgG1
B9: hu5G11-hIgG4 (antibody)
heavy: not shown
light: B8 light
notes: Humanized IgG4 with F234A and L235A; also called Humanized 5G11-IgG4 (F234A/L235A); hu-5G11-IgG4
B10: hu5G11 (antibody)
VH: QITLKESGPTLVKPTQTLTLTCTVSGFSLSTYGVHWIRQPPGKALEWLGVIWRGVTTDYNAAFMSRLTITKDNSKNQVVLTMNNMDPVDTATYYCARLGFYAMDYWGQGTLVTVSS
light: B8 light

In one experiment the target is T1, hPD-L1-hFc (human).
T1 construct: it may hold a signal peptide ('open reading frame of the extracellular domain'); also called PD-L1-hFc protein; human PD-L1 extracellular domain fused with human Fc tag
Kind of experiment: ELISA, coated PD-L1-hFc. On the procedure: (§1) ELISA binding analyses were conducted based on human PD-L1-mFc (for chimeric and humanized antibody detection) and PD-L1-hFc protein (for hybridoma antibody detection). 96-well plates (Costar, Cat No: 9018) were coated with 100 μL of 2 μg/ml PD-L1-mFc (Crownbio) in coating buffer PBS (Hyclone, Cat No: SH30256.01B) overnight at 4° C. The wells were aspirated and non-specific binding sites were blocked by adding 200 μL of blocking buffer (PBS with 1% (w/v) of bovine serum albumin (BSA, Roche, Cat No:738328)) and incubating for 1 hour at 37° C. After the plates were washed three times with wash buffer (PBS with 0.05% (v/v) Tween20 (Sigma, Cat No:P1379)), 100 μL/well of 1:10 serial dilutions of hybridoma (FIG. 1), chimeric (FIG. 2), or humanized (FIG. 3) anti-PD-L1 antibodies in blocking buffer (starting from 20 μg/mL) were added and incubated at room temperature for 1 hour. The plates were washed and incubated with 100 μL/well of Goat anti-Mouse IgG (H+L) (Thermo, Cat No: 31432) in blocking buffer for 60 min. After the plates were washed, 100 μL/well of substrate solution TMB (eBioscience, Cat No: 00-4201-56) were added and the plates were incubated for 2 min at room temperature. 100 μL/well of stop solution (2N H₂SO₄) was added to stop the reaction. The colorimetric signals were developed and read at 450 nm using an Auto Plate SpectraMax Plus (Supplier: Moleculer Devices; Model: MNR0643; Software: SoftMax Pro v5.4). Data were analyzed using GraphPad Prism 5 and EC50 was calculated (FIGS. 1-3; Tables 5-7).
(In general: In an ELISA, binding on a coated surface is turned into a signal by an enzyme label.)
As a reminder, the EC50 is the concentration at which the effect is half-maximal. For the molecule B1, the half-maximal effective concentration (EC50) worked out at 0.0487 µg/mL.

The target in a further experiment is T2, hPD-L1-mFc (human).
T2 construct: it may hold a signal peptide; also called human PD-L1-mFc; PD-L1-mFc (Crownbio)
Kind of experiment: ELISA, coated PD-L1-mFc. As to the method:
as §1
Molecule B2 yielded a 50% effective concentration (EC50) of 0.0856 µg/mL.
Same read-out and setting: to B3 belongs 0.127 µg/mL.
The same measure, in the same setting: to B4 belongs 0.134 µg/mL; to B5, 0.0821 µg/mL; to B6, 0.09 µg/mL.
Still for that read-out and setting: to B7 belongs 0.076 µg/mL; to B8, 0.0495 µg/mL.
Turning to B9, the concentration for a half-maximal effect (EC50) came out at 0.0699 µg/mL.

Another experiment has as its target T3, PD-L1 on 293T cells (UniProt Q9NZQ7 19-290).
T3 construct: whole, on cells; also called PD-L1-293T; 293T-PD-L1 cells
Kind of experiment: flow cytometry on PD-L1-293T cells. On the procedure:
Cell binding analyses of anti-PD-L1 antibodies were performed based on binding to a 293T cell line stably expressing PD-L1 (PD-L1-293T). 2×10⁵ 293T-PD-L1 cells were added into each well of 96-well culture plates and incubated with the indicated antibody (20 μg/ml with the dilution of 1:5) at 4° C. for 1 h. After the cells were washed three times with FACS buffer, the secondary antibody (PE Goat anti-mouse: 1:200; PE mouse anti-human: 1:10) was added to the cells at 100 μl/well, and incubated at 4° C. for 40 min. Cells were washed three times with FACS buffer and analyzed by FACS Array.
Background: A flow cytometer gives signals particle by particle.
Turning to B2, the EC50 turned out to be 0.08 µg/mL.
The same measure, in the same setting: for B3 the value was 0.0804 µg/mL; for B5, 0.0583 µg/mL.
Still for that read-out and setting: for B6 the value was 0.0897 µg/mL; for B8, 0.0479 µg/mL; for B9, 0.0543 µg/mL.
Molecule B1 displayed a concentration for a half-maximal effect (EC50) of 0.0478 µg/mL.

Another experiment addresses T4, Human PD-L1 (human, UniProt Q9NZQ7 19-238, limits assumed).
T4 construct: also called PD-L1 analyte (Biacore); hPD-L1
In words: SPR (Biacore 3000), antibody captured, PD-L1 as analyte, 1:1 fit. On the procedure: (§2) The binding kinetics between PD-L1 and PD-L1 antibodies were measured by Biacore analysis, which was performed at 25° C. on a Biacore3000 instrument and recorded with a data collection rate of 1 Hz. Polyclonal rabbit anti-mouse IgG (GE, BR-1008-38) was diluted with 10 mM pH 5.0 sodium acetate and immobilized onto reference and experiment flow cells of a CM5 biosensor chip to around 15000 RU using an amine coupling kit (GE, BR10050). […] PD-L1 analyte series were prepared by diluting the stocks with running buffer to 100 nM followed by 2× serial dilution in the same buffer down to 0.78 nM. Analytes were injected in series over the reference and experiment flow cells for 3 minutes at a flow rate of 30 μL/minute. Running buffer (PBS with 0.05% P20) was allowed to flow over for 10 minutes at a flow rate of 30 μL/minute. At the end of each cycle, the biosensor surface was regenerated with 3 minutes injection of 10 mM pH1.7 Glycine-HCl buffer at a flow rate of 10 μL/minute. For each analyte sample injection (i.e. each cycle), binding responses obtained from the experimental biosensor surface were double referenced by subtracting simultaneously recorded responses from the reference surface followed by additional subtraction of responses from a single referenced running buffer sample. The association and dissociation rate constants (ka and kd) were determined simultaneously by fitting double-referenced sensorgrams of the entire titration series to Langmuir model (1:1) using Biaevaluation 4.0 software. The dissociation constant, KD, was calculated from the determined rate constants by the relation KD=kd/ka.
Background: In SPR one partner is held on a chip, and binding of the other changes the refractive index at the surface.
By Kd is commonly meant the equilibrium constant for the complex coming apart. Molecule B10 gave a Kd of 0.225 nM.
The same measure, in the same setting: for B1 the value was 3.59 nM.

The next experiment has as its target T5, cynomolgus PD-L1 (cynomolgus, UniProt G7PSE7 19-238).
T5 construct: also called Cyno-PD-L1; cyno-PD-L1; not shown: Any tag or Fc carrier on the soluble cynomolgus PD-L1 analyte
The description is as above. As to the method: as §2
As to B10, the Kd was 0.275 nM. This counts as sub-nanomolar.

A further experiment addresses T6, biotinylated human PD-L1-mFc (human, biotinylated (sites not given)).
T6 construct: also called PDL-1-mFc-biotin
In words: competition ELISA: blocks PD-L1-mFc-biotin binding to coated PD-1-hFc. As to the method:
The wells were aspirated and non-specific binding sites were blocked by adding 200 μL of blocking buffer (PBS with 1% (w/v) of bovine serum albumin (BSA, Roche, Cat No:738328)) and incubating for 1 hour at 37° C. After the plate was washed three times with wash buffer (PBS with 0.05% (v/v) Tween20 (Sigma, Cat No:P1379)), 100 μL/well of 1:3 serial dilutions of hybridoma (FIG. 4), chimeric (FIG. 5), or humanized (FIG. 6) anti-PD-L1 antibodies in blocking buffer (starting from 20 μg/mL) were added and incubated at 37° C. for 1 hour. […] After the plate was washed 3 times, secondary antibody (Avidin HRP eBioscience cat No.: E07418-1632, 1:500, 100 μl/well) was added and incubated at 37° C. for 0.5 hour. After the plate was washed, 100 μL/well of substrate solution TMB (eBioscience, Cat No: 00-4201-56) was added and the plate was incubated for 3min at room temperature. 100 μL/well of stop solution (2N H₂SO₄) was added to stop the reaction. The colorimetric signals were developed and read at 450 nm using an Auto Plate SpectraMax Plus (Supplier: Moleculer Devices; Model: MNR0643; Software: SoftMax Pro v5.4). Data were analyzed using GraphPad Prism 5 and IC50 was calculated (FIGS. 4-6; Tables 8-10).
A word on the IC50: it is the point on the concentration scale where inhibition reaches its midpoint. Low readings indicate inhibition by little substance, high ones a need for much substance. As for B2, the half-maximal inhibitory concentration (IC50) was found to be 1.2 µg/mL.
Still for that read-out and setting: for B3 the value was 1.19 µg/mL; for B4, 0.848 µg/mL; for B5, 1.01 µg/mL.
On the same count and under the same terms, for B6 the value was 0.926 µg/mL; for B7, 0.477 µg/mL; for B8, 0.794 µg/mL.
The same measure, in the same setting: to B9 belongs 0.823 µg/mL; to B1, 0.655 µg/mL.

A further experiment deals with T3, PD-L1 on 293T cells. Kind of experiment: flow cytometry competition: blocks biotin-labeled PD-1 binding to PD-L1-293T cells. On the procedure: Briefly, PD-L1-293T cells were suspended in FACS buffer (PBS with 3% fetal calf serum). Various concentrations of the hybridoma (FIG. 10), chimeric (FIG. 11), or humanized (FIG. 12) anti-PD-L1 antibodies were added to the cell suspension and incubated at 4° C. for 60 minutes in 96 well plates. […] The cells were washed 3 times with PBS and incubated with mouse anti-biotin PE (Biolegend, cat# 409004). The cell-associated fluorescence was then detected by flow cytometry analysis using FACS array.
B2 registered an IC50 of 0.0185 µg/mL.
Same read-out and setting: for B3 the value was 0.0499 µg/mL; for B4, 0.042 µg/mL; for B5, 0.0404 µg/mL.
Consider B6, for which the IC50 came out at 0.0332 µg/mL.
The same measure, in the same setting: to B7 belongs 0.0349 µg/mL; to B8, 0.0165 µg/mL; to B9, 0.0096 µg/mL.
Same read-out and setting: for B1 the value was 0.0211 µg/mL.
